Measurements reported in patent US20260070987A1.
Residue numbers refer to the chain shown, from its start. Names and notes keep the numbering of the source.

B1: equine IgG1 Y436C (antibody, part only; not given: Variable domains, not shown: another chain or arm of the molecule)
constant: ASTTAPKVFALAPGCGTTSDSTVALGCLVSGYFPEPVKVSWNSGSLTSGVHTFPSVLQSSGFYSLSSMVTVPASTWTSETYICNVVHAASNFKVDKRIEPIPDNHQKVCDMSKCPKCPAPELLGGPSVFIFPPNPKDTLMITRTPEVTCVVVDVSQENPDVKFNWYMDGVEVRTATTRPKEEQFNSTYRVVSVLRIQHQDWLSGKEFKCKVNNQALPQPIERTITKTKGRSQEPQVYVLAPHPDELSKSKVSVTCLVKDFYPPEINIEWQSNGQPELETKYSTTQAQQDSDGSYFLYSKLSVDRNRWQQGTTFTCGVMHEALHNHCTQKNVSKNPGK
B2: equine IgG1 T286I (antibody, part only; not given: variable domains, not shown: another chain or arm of the molecule)
constant: B1 constant with T174I, C326Y
B3: equine IgG1 Y436I (antibody, part only; not given: variable domains, not shown: another chain or arm of the molecule)
constant: B1 constant with C326I
B4: equine IgG1 Y436D (antibody, part only; not given: variable domains, not shown: another chain or arm of the molecule)
constant: B1 constant with C326D
B5: equine IgG1 Y436W (antibody, part only; not given: Variable domains, not shown: another chain or arm of the molecule)
constant: B1 constant with C326W
B6: equine IgG1 Y436V (antibody, part only; not given: variable domains, not shown: another chain or arm of the molecule)
constant: B1 constant with C326V
B7: equine IgG1 T286H (antibody, part only; not given: variable domains, not shown: another chain or arm of the molecule)
constant: B1 constant with T174H, C326Y
B8: equine IgG1 Y436R (antibody, part only; not given: variable domains, not shown: another chain or arm of the molecule)
constant: B1 constant with C326R
B9: equine IgG1 Y436L (antibody, part only; not given: variable domains, not shown: another chain or arm of the molecule)
constant: B1 constant with C326L
B10: equine IgG1 Y436S (antibody, part only; not given: Variable domains, not shown: another chain or arm of the molecule)
constant: B1 constant with C326S
B11: equine IgG1 Y436G (antibody, part only; not given: variable domains, not shown: another chain or arm of the molecule)
constant: B1 constant with C326G
B12: equine IgG1 Y436T (antibody, part only; not given: variable domains, not shown: another chain or arm of the molecule)
constant: B1 constant with C326T
B13: equine IgG1 T286F (antibody, part only; not given: variable domains, not shown: another chain or arm of the molecule)
constant: B1 constant with T174F, C326Y
B14: equine IgG1 Y436Q (antibody, part only; not given: variable domains, not shown: another chain or arm of the molecule)
constant: B1 constant with C326Q
B15: equine IgG1 Y436N (antibody, part only; not given: variable domains, not shown: another chain or arm of the molecule)
constant: B1 constant with C326N
B16: equine IgG1 Y436E (antibody, part only; not given: variable domains, not shown: another chain or arm of the molecule)
constant: B1 constant with C326E
B17: equine IgG1 Y436H (antibody, part only; not given: variable domains, not shown: another chain or arm of the molecule)
constant: B1 constant with C326H
B18: equine IgG1 Y436M (antibody, part only; not given: variable domains, not shown: another chain or arm of the molecule)
constant: B1 constant with C326M
B19: equine IgG1 Y436K (antibody, part only; not given: variable domains, not shown: another chain or arm of the molecule)
constant: B1 constant with C326K
B20: equine IgG1 T286G (antibody, part only; not given: variable domains, not shown: another chain or arm of the molecule)
constant: B1 constant with T174G, C326Y
B21: equine IgG1 Y436F (antibody, part only; not given: variable domains, not shown: another chain or arm of the molecule)
constant: B1 constant with C326F
B22: equine IgG4 WT (antibody, part only; not given: Variable domains; allotype unconfirmed, not shown: another chain or arm of the molecule)
constant: ASTTAPKVFPLASHSAATSGSTVALGCLVSSYFPEPVTVSWNSGALTSGVHTFPSVLQSSGLYSLSSMVTVPASSLKSQTYICNVAHPASSTKVDKKIVIKECNGGCPAECLQVGPSVFIFPPKPKDVLMISRTPTVTCVVVDVGHDFPDVQFNWYVDGVETHTATTEPKQEQFNSTYRVVSVLPIQHKDWLSGKEFKCKVNNKALPAPVERTISKPTGQPREPQVYVLAPHRDELSKNKVSVTCLVKDFYPTDIDIEWKSNGQPEPETKYSTTPAQLDSDGSYFLYSKLTVETNRWQQGTTFTCAVMHEALHNHYTEKSVSKSPGK
B23: equine IgG4 K311R (antibody, part only; not given: variable domains, not shown: another chain or arm of the molecule)
constant: B22 constant with K189R
B24: equine IgG4 K311I (antibody, part only; not given: variable domains, not shown: another chain or arm of the molecule; small tags and cut ends)
constant: B22 constant with K189I
B25: equine IgG4 A426H (antibody, part only; not given: variable domains, not shown: another chain or arm of the molecule)
constant: B22 constant with A306H
B26: equine IgG4 A426E (antibody, part only; not given: variable domains, not shown: another chain or arm of the molecule)
constant: B22 constant with A306E
B27: equine IgG4 K311G (antibody, part only; not given: variable domains, not shown: another chain or arm of the molecule; small tags and cut ends)
constant: B22 constant with K189G
B28: equine IgG4 K311F (antibody, part only; not given: variable domains, not shown: another chain or arm of the molecule; small tags and cut ends)
constant: B22 constant with K189F
B29: equine IgG4 K311Q (antibody, part only; not given: variable domains, not shown: another chain or arm of the molecule)
constant: B22 constant with K189Q
B30: equine IgG4 K311P (antibody, part only; not given: Variable domains, not shown: another chain or arm of the molecule)
constant: B22 constant with K189P
B31: equine IgG4 K311E (antibody, part only; not given: variable domains, not shown: another chain or arm of the molecule; small tags and cut ends)
constant: B22 constant with K189E
B32: equine IgG4 K311H (antibody, part only; not given: variable domains, not shown: another chain or arm of the molecule; small tags and cut ends)
constant: B22 constant with K189H
B33: equine IgG4 A426D (antibody, part only; not given: variable domains, not shown: another chain or arm of the molecule)
constant: B22 constant with A306D
B34: equine IgG4 K311T (antibody, part only; not given: variable domains, not shown: another chain or arm of the molecule)
constant: B22 constant with K189T
B35: equine IgG4 K311M (antibody, part only; not given: variable domains, not shown: another chain or arm of the molecule)
constant: B22 constant with K189M
B36: equine IgG4 K311S (antibody, part only; not given: variable domains, not shown: another chain or arm of the molecule)
constant: B22 constant with K189S
B37: equine IgG4 K311D (antibody, part only; not given: variable domains, not shown: another chain or arm of the molecule; small tags and cut ends)
constant: B22 constant with K189D
B38: equine IgG4 K311Y (antibody, part only; not given: variable domains, not shown: another chain or arm of the molecule)
constant: B22 constant with K189Y
B39: equine IgG4 K311V (antibody, part only; not given: variable domains, not shown: another chain or arm of the molecule)
constant: B22 constant with K189V
B40: equine IgG4 A426F (antibody, part only; not given: variable domains, not shown: another chain or arm of the molecule)
constant: B22 constant with A306F
B41: equine IgG4 K311A (antibody, part only; not given: variable domains, not shown: another chain or arm of the molecule)
constant: B22 constant with K189A
B42: equine IgG4 K311W (antibody, part only; not given: variable domains, not shown: another chain or arm of the molecule)
constant: B22 constant with K189W
B43: equine IgG4 K311L (antibody, part only; not given: Variable domains, not shown: another chain or arm of the molecule)
constant: B22 constant with K189L
B44: equine IgG4 A426G (antibody, part only; not given: variable domains, not shown: another chain or arm of the molecule)
constant: B22 constant with A306G
B45: equine IgG4 K311N (antibody, part only; not given: variable domains, not shown: another chain or arm of the molecule)
constant: B22 constant with K189N
B46: equine IgG4 A426C (antibody, part only; not given: variable domains, not shown: another chain or arm of the molecule)
constant: B22 constant with A306C
B47: equine IgG4 K311C (antibody, part only; not given: variable domains, not shown: another chain or arm of the molecule; small tags and cut ends)
constant: B22 constant with K189C

Target: equine FcRn (large alpha subunit p51) / equine beta-2-microglobulin complex, biotinylated (equine) (UniProt P30441)
Test: SPR (Biacore), pH 6

Sequence of UniProt P30441 (P30441 21-118, one chain of several): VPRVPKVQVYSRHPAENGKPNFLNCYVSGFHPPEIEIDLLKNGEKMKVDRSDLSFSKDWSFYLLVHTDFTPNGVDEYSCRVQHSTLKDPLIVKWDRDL

Binder | Kd [nM]
B1 | 32.8
B2 | 18.2
B3 | 7.84
B4 | 28.4
B5 | 10.2
B6 | 9.06
B7 | 22.4
B8 | 25.6
B9 | 12.4
B10 | 13.5
B11 | 22
B12 | 15.2
B13 | 18.5
B14 | 14.6
B15 | 23.1
B16 | 33.8
B17 | 19.1
B18 | 11.1
B19 | 18
B20 | 15
B21 | 12.5
B22 | 22.5
B23 | 16.1
B24 | 30.6

Binder | Kd [nM]
B25 | 17.8
B26 | 18.2
B27 | 51.2
B28 | 41.8
B29 | 21.9
B30 | 2000
B31 | 75.2
B32 | 35.6
B33 | 15.5
B34 | 25.5
B35 | 16.4
B36 | 12.4
B37 | 64.3
B38 | 21.3
B39 | 22.4
B40 | 17.6
B41 | 24.8
B42 | 27.1
B43 | 28
B44 | 33.3
B45 | 41.1
B46 | 18.2
B47 | 23.5
